Values quoted from earlier work, collected in PMC5663392.

Biological target: FANCL RING (Homo sapiens) (UniProt Q9NW38)
UniProt Q9NW38, sequence (Q9NW38 304-366): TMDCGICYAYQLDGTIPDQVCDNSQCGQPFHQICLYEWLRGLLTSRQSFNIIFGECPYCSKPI

In the case of Ube2T (from UniProt Q9NPD8), the Kd is given as 0.5 µM.
